The series concerns the molecule itself. As to the kind of experiment: native gel or EMSA; samples at the end of ThT assays (Aβ1-42 3 µM with PAI-2 pre-treated with 0-200 µM NaOCl, PBS, 28 °C) centrifuged at 24,000 x g, supernatant on 8% native PAGE, Western blot with anti-Aβ (W0-2) or anti-PAI-2.

B1: Hypochlorite-treated glycosylated PAI-2 (PAI-2^G pre-treated with NaOCl) (natural protein, human, UniProt P05120 1-415, looked up)
chain: MEDLCVANTLFALNLFKHLAKASPTQNLFLSPWSISSTMAMVYMGSRGSTEDQMAKVLQFNEVGANAVTPMTPENFTSCGFMQQIQKGSYPDAILQAQAADKIHSSFRSLSSAINASTGNYLLESVNKLFGEKSASFREEYIRLCQKYYSSEPQAVDFLECAEEARKKINSWVKTQTKGKIPNLLPEGSVDGDTRMVLVNAVYFKGKWKTPFEKKLNGLYPFRVNSAQRTPVQMMYLREKLNIGYIEDLKAQILELPYAGDVSMFLLLPDEIADVSTGLELLESEITYDKLNKWTSKDKMAEDEVEVYIPQFKLEEHYELRSILRSMGMEDAFNKGRANFSGMSERNDLFLSEVFHQAMVDVNEEGTEAAAGTGGVMTGRTGHGGPQFVADHPFLFLIMHKITNCILFFGRFSSP
modifications: glycosylated; hypochlorite-modified: dityrosine cross-linkages, reactive thiols (cysteines) reduced by 62 ± 27% at 200 µM NaOCl; positions not given
notes: m1 after treatment with NaOCl; the dose differs between experiments (0-200 µM); also called hypochlorite-treated PAI-2^G; PAI-2^G OX200; source: bought: Biotech Australia (produced in CHO cells); incubated 2 h at 24 °C with up to 200 µM NaOCl, dialysed
Take B1: the binding result is listed as “binds”.

B2: Hypochlorite-treated non-glycosylated PAI-2 (PAI-2^NG pre-treated with NaOCl) (natural protein, human, UniProt P05120 1-415, looked up)
chain: B1 chain
modifications: hypochlorite-modified: dityrosine cross-linkages, reactive thiols (cysteines) reduced by 75 ± 18% at 200 µM NaOCl; positions not given
notes: m2 after treatment with NaOCl; the dose differs between experiments (0-200 µM); also called hypochlorite-treated PAI-2^NG; PAI-2^NG OX200; source: bought: Biotech Australia (produced in E. coli); incubated 2 h at 24 °C with up to 200 µM NaOCl, dialysed
B2: the binding result is “binds”.
